± gives the uncertainty stated by the source.

B1: SAM and SH3 domain-containing protein 1, residues 630 to 700; numbered along this chain, O94885 (parent)
chain: GRPPQPKSVEDLLDRINLKEHMPTFLFNGYEDLDTFKLLEEEDLDELNIRDPEHRAVLLTAVELLQEYDSN

In this series the parent is B1. Description: abundance fitness (aPCA) (normalised: wild type 0, dead -1); higher = more abundant; growth selection in yeast, the domain comes from the species named. The note with it: Homo sapiens.
Turning to D69K, the abundance fitness is -0.29 ± 0.055.
In the case of D69S it was -0.296 ± 0.04; in that of D69F, -0.811 ± 0.093; in that of D69I, -0.836 ± 0.09.
In the case of D69P it was -0.081 ± 0.041; in that of N17W, -0.956 ± 0.096.
The result for N17P reads -1.08 ± 0.094; that for N17I, -0.851 ± 0.086.
For the variant N17K, the abundance fitness was -0.341 ± 0.051.
In the case of N17T, the abundance fitness is -0.842 ± 0.064.
In the case of L65D it was -0.511 ± 0.09; in that of L65E, -0.758 ± 0.097; in that of L65S, -0.69 ± 0.048.
In the case of L65T it was -0.767 ± 0.063; in that of L65R, -0.82 ± 0.064; in that of L65K, -0.812 ± 0.084.
Consider L65A, for which the abundance fitness was -0.625 ± 0.065.
In the case of L65H it was -0.853 ± 0.083; in that of L65C, -0.538 ± 0.07; in that of L65Q, -0.707 ± 0.084.
As to N71D, the abundance fitness came out at 0.197 ± 0.047.
In the case of N71M it was -0.071 ± 0.072.
In the case of N71P it was 0.005 ± 0.051; in that of N71Q, 0.121 ± 0.059; in that of N71W, -0.256 ± 0.087.
The result for N71R reads 0.087 ± 0.052; that for N71I, -0.117 ± 0.054.
Regarding L18G, the abundance fitness was -0.89 ± 0.064.
In the case of L18A it was -0.804 ± 0.064; in that of L18V, -0.742 ± 0.052.
Take L18M: the abundance fitness amounted to 0.158 ± 0.044.
In the case of G1H it was -0.161 ± 0.12; in that of G1C, -0.067 ± 0.085.
In the case of G1L it was 0.036 ± 0.066; in that of G1Q, 0.109 ± 0.16.
The result for G1T reads 0.016 ± 0.087.
For G1P, the abundance fitness was -0.137 ± 0.27.
In the case of E63Y it was -0.687 ± 0.064; in that of E63M, -0.492 ± 0.063; in that of E63G, -0.15 ± 0.042.
In the case of E63K, the abundance fitness stood at 0.244 ± 0.042.
The result for A61V reads -0.644 ± 0.063; that for A61I, -0.983 ± 0.11.
In the case of A61N it was -0.479 ± 0.066.
For the variant A61H, the abundance fitness was -0.497 ± 0.066.
In the case of A61Q, the abundance fitness is -0.036 ± 0.057.
The result for R15C reads -0.374 ± 0.059.
In the case of R15L it was -0.223 ± 0.037; in that of R15V, -0.381 ± 0.046; in that of P23F, -0.434 ± 0.057.
Take P23I: the abundance fitness is -0.398 ± 0.063.
In the case of P23E it was 0.282 ± 0.049; in that of P23R, -0.225 ± 0.045; in that of P23V, -0.433 ± 0.049.
As for P23G, the abundance fitness came to 0.039 ± 0.043.
Consider E67R, for which the abundance fitness was -0.167 ± 0.04.
As for E67M, the abundance fitness is -0.342 ± 0.049.
In the case of E67G it was -0.107 ± 0.046.
As for E67L, the abundance fitness is -0.468 ± 0.041.
Take E67I: the abundance fitness was -0.492 ± 0.057.
The result for E67K reads -0.094 ± 0.046.
Turning to E67F, the abundance fitness was -0.609 ± 0.063.
As for L59I, the abundance fitness was -0.525 ± 0.064.
Consider L59M, for which the abundance fitness amounted to 0.001 ± 0.048.
E40M: the abundance fitness is -0.246 ± 0.056.
For E40R, the abundance fitness came to 0.337 ± 0.035.
The result for E40V reads -0.088 ± 0.047.
For E10C, the abundance fitness is -0.463 ± 0.071.
On to P52E, for which the abundance fitness was -0.317 ± 0.059.
In the case of P52T it was -0.437 ± 0.045; in that of P52G, -0.71 ± 0.057.
Consider L33E, for which the abundance fitness was -0.962 ± 0.14.
The result for L33Y reads -1.15 ± 0.12; that for L33P, -0.896 ± 0.095; that for L33Q, -0.73 ± 0.11.
For L33F, the abundance fitness was -0.697 ± 0.087.
On to L33S, for which the abundance fitness was -0.812 ± 0.066.
Regarding L33R, the abundance fitness is -0.926 ± 0.068.
For L33D, the abundance fitness is -0.76 ± 0.092.
For V62I, the abundance fitness is -0.14 ± 0.052.
The result for V62M reads -0.648 ± 0.072; that for V62Q, -0.769 ± 0.091; that for V62H, -0.596 ± 0.072.
V62Y: the abundance fitness is -0.82 ± 0.093.
Consider L38I, for which the abundance fitness is -0.76 ± 0.096.
In the case of L38V it was -0.492 ± 0.046.
In the case of L38R it was -0.041 ± 0.037; in that of L38Y, -0.117 ± 0.056; in that of S8A, -0.889 ± 0.093.
Turning to S8H, the abundance fitness was -0.899 ± 0.09.
Take S8F: the abundance fitness is -0.984 ± 0.11.
The result for S8R reads -0.836 ± 0.082; that for S8N, -0.305 ± 0.053.
As for S8V, the abundance fitness was -1.02 ± 0.1.
Regarding S8C, the abundance fitness was -0.701 ± 0.087.
Turning to D43H, the abundance fitness is -0.201 ± 0.042.
On to D43N, for which the abundance fitness was -0.058 ± 0.044.
As for D43Q, the abundance fitness was -0.142 ± 0.041.
Consider D43L, for which the abundance fitness was -0.894 ± 0.049.
In the case of D11Y, the abundance fitness is -0.717 ± 0.067.
With D11K, the abundance fitness is -0.766 ± 0.088.
The result for D34K reads -0.291 ± 0.054; that for D34A, -0.145 ± 0.04; that for D34T, -0.415 ± 0.043.
Regarding D34L, the abundance fitness was -0.67 ± 0.045.
In the case of D34H it was -0.426 ± 0.049.
On to D32K, for which the abundance fitness was -0.197 ± 0.05.
D32S: the abundance fitness turned out to be 0.094 ± 0.033.
In the case of D32R it was -0.268 ± 0.038; in that of D32V, -0.788 ± 0.06; in that of D32H, -0.187 ± 0.048.
Regarding D32C, the abundance fitness was -0.292 ± 0.055.
The result for D32F reads -0.803 ± 0.092.
In the case of D32E it was -0.275 ± 0.055.
Regarding F25W, the abundance fitness is -0.891 ± 0.088.
In the case of F25H, the abundance fitness is -0.924 ± 0.11.
Turning to F25K, the abundance fitness was -0.784 ± 0.071.
On to F25P, for which the abundance fitness was -0.925 ± 0.084.
The result for L64A reads 0.343 ± 0.036; that for L64T, 0.166 ± 0.038.
In the case of L64R it was 0.199 ± 0.035; in that of L64F, -0.117 ± 0.043; in that of L64N, 0.295 ± 0.041.
For L64H, the abundance fitness is 0.222 ± 0.041.
The result for A56T reads -0.114 ± 0.035.
Take A56G: the abundance fitness is -0.337 ± 0.05.
As for A56D, the abundance fitness was -0.096 ± 0.046.
In the case of N28D it was -0.812 ± 0.091; in that of R50K, 0.032 ± 0.058.
The result for R50T reads 0.183 ± 0.037; that for R50Y, -0.012 ± 0.047.
The result for R50H reads 0.072 ± 0.046.
R50D: the abundance fitness is -0.057 ± 0.051.
For L39E, the abundance fitness is -0.771 ± 0.1.
As to L39Q, the abundance fitness is -0.892 ± 0.098.
With L39N, the abundance fitness is -0.851 ± 0.075.
With L39S, the abundance fitness was -0.818 ± 0.053.
Consider L39W, for which the abundance fitness is -1.19 ± 0.14.
For L39K, the abundance fitness is -0.928 ± 0.11.
In the case of L39V it was -0.422 ± 0.049; in that of L39T, -0.79 ± 0.059.
Consider L39M, for which the abundance fitness was -0.319 ± 0.055.
As for V57R, the abundance fitness came to 0.418 ± 0.034.
The result for V57N reads 0.15 ± 0.048; that for V57F, -0.747 ± 0.077.
In the case of V57P it was -0.484 ± 0.055; in that of V57Q, 0.251 ± 0.041.
Take V57W: the abundance fitness is -0.397 ± 0.061.
The result for L12I reads -0.328 ± 0.067; that for L12S, -0.75 ± 0.057.
The result for L12N reads -0.794 ± 0.088; that for L12C, -0.654 ± 0.077; that for L12T, -0.829 ± 0.071.
Turning to N48Q, the abundance fitness is -0.393 ± 0.13.
The result for N48D reads 0.024 ± 0.093.
The result for N48T reads -0.916 ± 0.2.
The result for N48I reads -0.985 ± 0.24.
On to V9D, for which the abundance fitness is -0.736 ± 0.089.
In the case of V9P, the abundance fitness is -0.632 ± 0.063.
Regarding V9R, the abundance fitness was -0.969 ± 0.084.
In the case of L44Y it was -0.755 ± 0.085; in that of L44A, -0.779 ± 0.061.
Regarding L44E, the abundance fitness is -0.757 ± 0.077.
The result for L44N reads -0.822 ± 0.081; that for L44C, -0.598 ± 0.075.
In the case of L44W it was -0.773 ± 0.085; in that of H21A, -0.85 ± 0.068.

The values are drawn from the Human Domainome abundance scans (Beltran et al. 2025).
